Reference: patent publication US6613531B2, “Sigma binding region of RNA polymerase and uses thereof” (priority 2000, dated 2003)

Molecular target: T1, σ^70 (Escherichia coli, UniProt P00579)
Assay: not given
Conditions: versus wild type β′1-319
Description: Cells containing truncated β′ expression plasmids pTA610-620 were grown to an A600 of 0.6-0.8 and induced with 1 mM IPTG. The cells were grown for an additional 30 minutes. A 200 μl sample was removed and sonicated 3×30 seconds. Twenty μl of glycerol and 20 μl of SDS-sample buffer were added and heated for 2 minutes at 95° C. then stored at −20° C. until use. The lysates were separated by SDS-PAGE. The proteins were electrophoretically transferred onto 0.05 μm nitrocellulose.
The blot was dried and the signal was visualized with a PhosphorImager and quantitated with IMAGEQUANT software (Molecular Dynamics).
This method was initially employed to detect the functionality of the β′ mutants. The mutations were cloned into a gene fragment coding for amino acid residues 1-319 of the β′ subunit. […] Samples were analyzed for binding σ^70 by far Western analysis The amount of σ^70 probe bound by each β′1-319 mutant fragment was compared to the amount bound by wt β′1-319 fragment. Each signal was normalized to the amount of β′1-319 contained in the supernatant as determined by Western blotting.
Target sequence in this assay (P00579 whole entry): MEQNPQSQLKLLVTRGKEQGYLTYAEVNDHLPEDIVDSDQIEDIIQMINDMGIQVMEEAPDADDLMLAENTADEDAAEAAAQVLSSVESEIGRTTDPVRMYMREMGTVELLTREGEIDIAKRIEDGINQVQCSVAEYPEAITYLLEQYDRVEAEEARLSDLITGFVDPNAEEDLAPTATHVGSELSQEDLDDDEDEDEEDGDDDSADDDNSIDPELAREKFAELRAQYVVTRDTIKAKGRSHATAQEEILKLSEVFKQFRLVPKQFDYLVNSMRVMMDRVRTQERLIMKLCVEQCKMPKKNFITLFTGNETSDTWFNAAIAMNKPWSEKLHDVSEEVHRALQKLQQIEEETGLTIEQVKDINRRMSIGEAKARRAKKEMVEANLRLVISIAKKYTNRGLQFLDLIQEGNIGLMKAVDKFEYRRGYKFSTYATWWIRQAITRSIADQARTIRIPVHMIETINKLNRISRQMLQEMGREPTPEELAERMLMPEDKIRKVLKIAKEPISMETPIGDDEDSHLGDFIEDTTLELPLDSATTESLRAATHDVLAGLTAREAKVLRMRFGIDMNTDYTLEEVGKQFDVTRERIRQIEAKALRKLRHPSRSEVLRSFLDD

Compound	increase in relative binding
Q300E (FATSDLNDLYRRVINRNNRLKRLLDLAAPDIIVRNEKRMLEEAVDALLDN)	greater than 7 fold

Same assay, conditions: β′1-319 fragment, normalized to amount of fragment

Compound	ability to bind σ^70 compared to wt β′1-319 fragment
N309D (FATSDLNDLYRRVINRNNRLKRLLDLAAPDIIVRNEKRMLQEAVDALLDD)	binding more σ^70 than wild type
R293Q (FATSDLNDLYRRVINRNNRLKRLLDLAAPDIIVQNEKRMLQEAVDALLDN)	greatly reduced
Q300E (FATSDLNDLYRRVINRNNRLKRLLDLAAPDIIVRNEKRMLEEAVDALLDN)	binding more σ^70 than wild type
E295K (FATSDLNDLYRRVINRNNRLKRLLDLAAPDIIVRNKKRMLQEAVDALLDN)	greatly reduced
R297S (FATSDLNDLYRRVINRNNRLKRLLDLAAPDIIVRNEKSMLQEAVDALLDN)	greatly reduced
N266D (FATSDLDDLYRRVINRNNRLKRLLDLAAPDIIVRNEKRMLQEAVDALLDN)	no effects on binding
Y269A (FATSDLNDLARRVINRNNRLKRLLDLAAPDIIVRNEKRMLQEAVDALLDN)	no effects on binding
K280E (FATSDLNDLYRRVINRNNRLERLLDLAAPDIIVRNEKRMLQEAVDALLDN)	no effects on binding
R275Q (FATSDLNDLYRRVINQNNRLKRLLDLAAPDIIVRNEKRMLQEAVDALLDN)	greatly reduced
A302D (FATSDLNDLYRRVINRNNRLKRLLDLAAPDIIVRNEKRMLQEDVDALLDN)	greatly reduced

Test system: strain RL602
Assay: Growth with plasmid-derived wild type or mutant β′ as sole source of β′ subunit
Format: cell-based
Conditions: 42° C., mutant β′ as sole source of β′
Description: Plasmids pTA577, 600-609 (0.1 μg) were transformed into strain RL602 (Weilbaecher et al., 1994; Ridley et al., 1982). After heat shock and incubation on ice, 300 μl of LB was added to the 50 μl cell mixture. Ten μl of the transformation reaction was spotted onto LB plates plus ampicillin (100 μg/ml) and incubated at 30° C. Another 10 μl was spotted onto plates and incubated at 42° C. The plates were incubated between 24-48 hours and assessed for growth.
To assess the importance of the σ^70 binding site in vivo, the ability of mutant β′ subunits to function as the cell's sole source of β′ was assessed. Plasmids containing either mutant or wild type, full length β′ were transformed into strain RL602 (Weilbaecher et al., 1994; Ridley et al., 1982). The chromosomal rpoC gene of RL602 has an amber mutation that prevents functional β′ from being produced in the absence of a suppressor tRNA. RL602 also has a chromosomal, temperature-sensitive, amber suppressor. At the permissive temperature (30° C.) the amber suppressor is active and allows chromosomal β′ to be produced and the cell can grow. The amber suppressor is not active at the non-permissive temperature (42° C.). Therefore, at 42° C., chromosomal β′ is not made and the cell cannot grow without another source of β′. If the plasmid-derived β′ can complement the loss of β′, the cells will grow and form colonies on plates at the non-permissive temperature. If the mutant β′ cannot complement, there will be no growth on the plates at this temperature.

Compound	growth at the non-permissive temperature
N309D (FATSDLNDLYRRVINRNNRLKRLLDLAAPDIIVRNEKRMLQEAVDALLDD)	no detectable effects on growth
R293Q (FATSDLNDLYRRVINRNNRLKRLLDLAAPDIIVQNEKRMLQEAVDALLDN)	could support growth
Q300E (FATSDLNDLYRRVINRNNRLKRLLDLAAPDIIVRNEKRMLEEAVDALLDN)	no detectable effects on growth
E295K (FATSDLNDLYRRVINRNNRLKRLLDLAAPDIIVRNKKRMLQEAVDALLDN)	could not support growth
R297S (FATSDLNDLYRRVINRNNRLKRLLDLAAPDIIVRNEKSMLQEAVDALLDN)	could support growth
N266D (FATSDLDDLYRRVINRNNRLKRLLDLAAPDIIVRNEKRMLQEAVDALLDN)	allowed some growth
Y269A (FATSDLNDLARRVINRNNRLKRLLDLAAPDIIVRNEKRMLQEAVDALLDN)	no detectable effects on growth
K280E (FATSDLNDLYRRVINRNNRLERLLDLAAPDIIVRNEKRMLQEAVDALLDN)	no detectable effects on growth
R275Q (FATSDLNDLYRRVINQNNRLKRLLDLAAPDIIVRNEKRMLQEAVDALLDN)	could not support growth
A302D (FATSDLNDLYRRVINRNNRLKRLLDLAAPDIIVRNEKRMLQEDVDALLDN)	could not support growth

Molecular target: T1, σ^70
Assay: not given
Conditions: log and stationary phase samples
Description: (§1) One L flasks containing 200 ml of LB with ampicillin (100 μg/ml) and IPTG (0.15 mM) were inoculated with 200 μl from an overnight culture of cells containing plasmids pTA561, 577, 600-609. The cultures were grown at 37° C. with shaking until the A600=0.4 for log phase assays and 2 hours longer (A600 about 2.0) for the early stationary phase assays. The cells were harvested by centrifugation at 6,000 rpm for 10 minutes and stored at −20° C. until use. The cell pellets were resuspended in 5 ml TE (10 mM Tris-HCl, pH 7.9 and 0.1 mM EDTA) plus 0.15 M NaCl and lysozyme (0.1 mg/ml) then incubated on ice for 15 minutes. The cells were sonicated 2×30 seconds and centrifuged for 25 minutes at 27,000×g to pellet the insoluble material. The supernatant was loaded onto a 1.5 ml immunoaffinity column containing the polyol-responsive, anti-β′ monoclonal antibody (MAb), NT73 (Thompson et al., 1992). The column was washed with 15 ml TE plus 0.15 M NaCl followed by a second wash with 10 ml TE plus 0.5 M NaCl. The protein was eluted from the column with 4 ml TE plus 0.7 M NaCl and 30% propylene glycol. The eluted sample (4 ml) was diluted with 6 ml buffer B (20 mM Tris-HCl, pH 7.9, 500 mM NaCl, 5 mM imidazole, 0.1% (v/v) Tween 20, and 10% (v/v) glycerol) and loaded (2×) onto 500 μl of Ni^2+-NTA resin. The resin was washed (2×) with 5 ml of buffer B and eluted with 0.5 ml buffer B plus 0.25 M imidazole. Samples from the elution fractions were assayed by Western blot as described above using Mabs to each subunit or σ factor. The secondary antibodies were horseradish peroxidase-labeled goat antimouse IgG antibodies and the signal was generated using the ECL+ substrate system (Amersham) and detected using the STORM FluoroImager and quantitated with IMAGEQUANT software (Molecular Dynamics).
(§2) To evaluate the potential assembly defects caused by the various mutations, His6-tagged, mutant β′ subunits were expressed in cells that were also expressing wild type, chromosomal β′ proteins. A Ni^2+-NTA column was used to purify the mutant β′ subunits together with associated cell proteins. An immunoaffinity column was used to clean-up the samples in order to reduce any non-specific binding to the Ni^2+-NTA column.
Target sequence in this assay (P00579 whole entry): as the sequence (P00579 whole entry) above
Target sequence in this assay (P0A8T7 whole entry, further chain): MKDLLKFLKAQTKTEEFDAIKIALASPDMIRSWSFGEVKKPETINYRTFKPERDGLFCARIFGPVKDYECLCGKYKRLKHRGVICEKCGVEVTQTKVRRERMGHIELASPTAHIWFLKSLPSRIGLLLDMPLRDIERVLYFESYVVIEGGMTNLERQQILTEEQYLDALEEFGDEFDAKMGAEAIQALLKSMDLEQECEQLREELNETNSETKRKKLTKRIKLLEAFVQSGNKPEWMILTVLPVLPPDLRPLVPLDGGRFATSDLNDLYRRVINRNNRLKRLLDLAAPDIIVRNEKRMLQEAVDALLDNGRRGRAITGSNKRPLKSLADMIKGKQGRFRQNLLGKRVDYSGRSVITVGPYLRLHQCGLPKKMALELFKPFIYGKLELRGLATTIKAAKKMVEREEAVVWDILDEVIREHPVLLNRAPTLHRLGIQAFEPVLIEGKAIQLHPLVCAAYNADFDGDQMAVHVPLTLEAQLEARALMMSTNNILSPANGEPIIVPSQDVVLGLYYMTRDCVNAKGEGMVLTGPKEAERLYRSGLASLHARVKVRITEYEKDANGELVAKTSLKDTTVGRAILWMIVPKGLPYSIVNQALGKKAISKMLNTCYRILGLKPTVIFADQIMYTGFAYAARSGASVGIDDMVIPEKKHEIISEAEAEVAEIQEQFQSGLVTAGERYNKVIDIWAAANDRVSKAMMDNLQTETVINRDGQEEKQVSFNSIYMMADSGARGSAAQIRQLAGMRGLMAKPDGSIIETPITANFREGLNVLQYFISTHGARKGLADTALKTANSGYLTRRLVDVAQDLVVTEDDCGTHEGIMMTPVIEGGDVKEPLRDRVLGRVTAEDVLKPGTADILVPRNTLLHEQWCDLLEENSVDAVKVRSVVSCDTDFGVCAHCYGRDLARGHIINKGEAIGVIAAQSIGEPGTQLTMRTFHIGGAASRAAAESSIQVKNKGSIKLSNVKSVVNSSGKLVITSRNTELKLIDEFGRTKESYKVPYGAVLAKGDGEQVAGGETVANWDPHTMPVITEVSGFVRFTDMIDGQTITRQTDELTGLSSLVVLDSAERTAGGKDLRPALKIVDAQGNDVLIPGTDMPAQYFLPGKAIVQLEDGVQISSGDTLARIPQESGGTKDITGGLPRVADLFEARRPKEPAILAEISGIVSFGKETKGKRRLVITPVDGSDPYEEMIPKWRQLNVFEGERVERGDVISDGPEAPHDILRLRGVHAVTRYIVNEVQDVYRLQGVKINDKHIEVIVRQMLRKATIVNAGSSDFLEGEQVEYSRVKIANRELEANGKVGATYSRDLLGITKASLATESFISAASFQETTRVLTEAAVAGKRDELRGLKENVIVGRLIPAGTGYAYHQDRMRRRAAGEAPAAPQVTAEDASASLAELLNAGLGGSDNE
Target sequence in this assay (P0A8V2 whole entry, further chain): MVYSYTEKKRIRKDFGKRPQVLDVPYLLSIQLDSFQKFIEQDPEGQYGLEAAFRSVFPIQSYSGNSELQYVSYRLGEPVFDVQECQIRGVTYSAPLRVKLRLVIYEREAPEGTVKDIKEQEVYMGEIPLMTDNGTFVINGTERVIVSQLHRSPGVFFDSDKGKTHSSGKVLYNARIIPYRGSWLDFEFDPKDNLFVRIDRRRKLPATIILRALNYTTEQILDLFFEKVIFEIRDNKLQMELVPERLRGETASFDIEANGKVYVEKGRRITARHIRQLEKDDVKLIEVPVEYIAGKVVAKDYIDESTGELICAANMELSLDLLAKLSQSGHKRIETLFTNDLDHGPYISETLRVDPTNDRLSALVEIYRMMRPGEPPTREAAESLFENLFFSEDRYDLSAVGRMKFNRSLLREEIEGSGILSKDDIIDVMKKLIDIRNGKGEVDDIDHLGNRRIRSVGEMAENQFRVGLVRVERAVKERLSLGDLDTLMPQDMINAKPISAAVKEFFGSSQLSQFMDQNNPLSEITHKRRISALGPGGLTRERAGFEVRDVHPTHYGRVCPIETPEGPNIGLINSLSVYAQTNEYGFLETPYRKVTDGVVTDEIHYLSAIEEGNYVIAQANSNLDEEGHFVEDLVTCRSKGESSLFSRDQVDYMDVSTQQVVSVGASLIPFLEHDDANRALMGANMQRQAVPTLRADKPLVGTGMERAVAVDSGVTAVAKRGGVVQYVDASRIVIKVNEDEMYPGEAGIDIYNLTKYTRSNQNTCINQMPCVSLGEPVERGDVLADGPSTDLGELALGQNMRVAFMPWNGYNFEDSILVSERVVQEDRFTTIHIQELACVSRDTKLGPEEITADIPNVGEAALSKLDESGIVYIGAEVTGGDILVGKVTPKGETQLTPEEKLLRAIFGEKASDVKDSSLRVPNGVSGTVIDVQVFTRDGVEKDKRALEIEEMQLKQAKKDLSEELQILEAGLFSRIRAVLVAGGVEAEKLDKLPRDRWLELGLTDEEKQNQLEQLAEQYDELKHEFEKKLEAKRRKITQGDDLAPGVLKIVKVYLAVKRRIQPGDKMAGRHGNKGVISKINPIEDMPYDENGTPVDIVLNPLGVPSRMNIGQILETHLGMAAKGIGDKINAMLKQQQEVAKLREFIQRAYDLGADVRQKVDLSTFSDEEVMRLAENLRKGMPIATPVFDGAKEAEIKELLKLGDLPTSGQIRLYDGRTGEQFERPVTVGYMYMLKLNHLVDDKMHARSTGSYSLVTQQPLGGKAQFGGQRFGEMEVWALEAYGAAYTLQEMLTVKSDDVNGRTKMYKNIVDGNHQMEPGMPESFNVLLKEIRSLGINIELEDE
Target sequence in this assay (P0A7Z4 whole entry, further chain): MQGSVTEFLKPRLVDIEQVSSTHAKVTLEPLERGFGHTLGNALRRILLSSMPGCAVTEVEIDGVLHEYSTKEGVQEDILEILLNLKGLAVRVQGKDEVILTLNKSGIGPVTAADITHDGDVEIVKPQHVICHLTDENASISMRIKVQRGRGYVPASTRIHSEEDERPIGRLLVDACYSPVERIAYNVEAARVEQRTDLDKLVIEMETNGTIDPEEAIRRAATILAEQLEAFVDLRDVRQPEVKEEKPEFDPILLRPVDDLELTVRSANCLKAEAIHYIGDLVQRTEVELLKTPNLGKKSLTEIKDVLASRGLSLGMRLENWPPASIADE

Compound	Eσ^70 formation / binding σ^70
N309D (FATSDLNDLYRRVINRNNRLKRLLDLAAPDIIVRNEKRMLQEAVDALLDD)	no detectable affect
R293Q (FATSDLNDLYRRVINRNNRLKRLLDLAAPDIIVQNEKRMLQEAVDALLDN)	no detectable affect
E295K (FATSDLNDLYRRVINRNNRLKRLLDLAAPDIIVRNKKRMLQEAVDALLDN)	defects in binding σ^70
N266D (FATSDLDDLYRRVINRNNRLKRLLDLAAPDIIVRNEKRMLQEAVDALLDN)	reduced
Y269A (FATSDLNDLARRVINRNNRLKRLLDLAAPDIIVRNEKRMLQEAVDALLDN)	no detectable affect
K280E (FATSDLNDLYRRVINRNNRLERLLDLAAPDIIVRNEKRMLQEAVDALLDN)	no detectable affect
R275Q (FATSDLNDLYRRVINQNNRLKRLLDLAAPDIIVRNEKRMLQEAVDALLDN)	defects in binding σ^70
A302D (FATSDLNDLYRRVINRNNRLKRLLDLAAPDIIVRNEKRMLQEDVDALLDN)	defects in binding σ^70

Same assay, conditions: log phase samples

Compound	Eσ^70 formation
R297S (FATSDLNDLYRRVINRNNRLKRLLDLAAPDIIVRNEKSMLQEAVDALLDN)	reduced

Molecular target: T2, σ^32 (Escherichia coli, UniProt P0AGB3)
T2 sequence (P0AGB3 whole entry, looked up): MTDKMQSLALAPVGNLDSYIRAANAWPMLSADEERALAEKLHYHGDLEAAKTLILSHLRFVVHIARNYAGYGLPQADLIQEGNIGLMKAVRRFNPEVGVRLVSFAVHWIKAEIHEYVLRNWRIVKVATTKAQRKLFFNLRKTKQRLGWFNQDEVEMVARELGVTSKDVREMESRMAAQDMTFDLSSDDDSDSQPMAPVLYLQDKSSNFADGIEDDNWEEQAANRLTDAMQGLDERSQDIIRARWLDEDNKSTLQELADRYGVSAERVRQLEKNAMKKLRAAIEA
Assay: not given
Conditions: log phase samples
Description: as §1, §2
(§3) All of the sample eluates were also assayed for the presence of any minor σ species.

Compound	amount of σ^32
Q300E (FATSDLNDLYRRVINRNNRLKRLLDLAAPDIIVRNEKRMLEEAVDALLDN)	decreased amount

Same assay, conditions: minor σ's at detectable levels: σ^32 and σ^F

Compound	binding of the minor sigmas
R297S (FATSDLNDLYRRVINRNNRLKRLLDLAAPDIIVRNEKSMLQEAVDALLDN)	increased binding

Same assay, conditions: stationary phase samples

Compound	σ^32 levels
Q300E (FATSDLNDLYRRVINRNNRLKRLLDLAAPDIIVRNEKRMLEEAVDALLDN)	greatly reduced

Molecular target: σ^F (Escherichia coli, UniProt P0AEM6)
Assay: not given
Conditions: stationary phase samples
Description: as §1, §2, §3

Compound	σ^F levels
Q300E (FATSDLNDLYRRVINRNNRLKRLLDLAAPDIIVRNEKRMLEEAVDALLDN)	greatly reduced

Molecular target: labeled σ^70 and β′ (Escherichia coli, UniProt P00579+P0A8T7, C132S/C291S/C295S/S442C)
Assay: not given
Conditions: 10 nM labeled σ^70, 50 nM labeled β′

Chain of labeled σ^70 and β′ (P00579 whole entry C132S/C291S/C295S/S442C): as the sequence (P00579 whole entry) above, with C132S, C291S, C295S, S442C counted along it
Chain of labeled σ^70 and β′ (P0A8T7 100-309): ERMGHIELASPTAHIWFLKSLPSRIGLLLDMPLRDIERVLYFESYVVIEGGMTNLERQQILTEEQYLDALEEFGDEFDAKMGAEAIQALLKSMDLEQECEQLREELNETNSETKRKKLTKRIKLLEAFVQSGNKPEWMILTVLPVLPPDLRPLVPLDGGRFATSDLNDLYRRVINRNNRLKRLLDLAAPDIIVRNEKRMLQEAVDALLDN

Compound	effect on LRET signal / competition
C[S+](C)[O-] [DMSO]	no significant effect
CCO [ethanol]	significant effect
